The text below walks through data of paper PMC4663176 (Insect biochemistry and molecular biology, 2015).

Data set [1] has as its target T1, Arylalkylamine N-acyltransferase like 2 (AANATL2) (Drosophila melanogaster, UniProt Q9VMG0).
T1 sequence (Q9VMG0 1-216): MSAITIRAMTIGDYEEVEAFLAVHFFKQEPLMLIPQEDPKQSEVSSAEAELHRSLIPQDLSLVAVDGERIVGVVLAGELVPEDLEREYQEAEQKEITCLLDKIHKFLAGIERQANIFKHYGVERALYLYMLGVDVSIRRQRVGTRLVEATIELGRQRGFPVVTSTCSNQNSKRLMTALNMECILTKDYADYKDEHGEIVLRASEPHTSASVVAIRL
Kind of data set: dead-end inhibition kinetics, DTNB assay of CoA release, purified enzyme. It counts as biochemical.

Data set [2] has as its target T1, Arylalkylamine N-acyltransferase like 2 (AANATL2). Described as above. The format is biochemical. This is another data set of the same source.
Substrate in data set [3]: NCCc1cccc(C(F)(F)F)c1
Kind of data set: purified protein. To be noted: acetyl-CoA; pH 8.0.

Substrate in data set [4]: CC(=O)SCCNC(=O)CCNC(=O)[C@H](O)C(C)(C)COP(=O)(O)OP(=O)(O)OC[C@H]1O[C@@H](n2cnc3c(N)ncnc32)[C@H](O)[C@@H]1OP(=O)(O)O
Put plainly: purified protein. To be noted: acetyl-CoA binds first in an ordered sequential mechanism.

Substrate in data set [5]: CC(CN)c1ccccc1
Put plainly: steady-state kinetics. The following applies: acetyl-CoA; pH 8.0. The format is biochemical, Drosophila melanogaster.

Substrate in data set [6]: NCCCCc1ccccc1
Kind of data set: steady-state kinetics. The format is biochemical, Drosophila melanogaster. To be noted: acetyl-CoA; pH 8.0.

Substrate in data set [7]: COc1ccc(CCN)cc1
Kind of data set: steady-state kinetics. The format is biochemical, Drosophila melanogaster. To be noted: acetyl-CoA; pH 8.0.

Substrate in data set [8]: NCCc1c[nH]c2ccccc12
Put plainly: steady-state kinetics. It counts as biochemical, Drosophila melanogaster. The following applies: acetyl-CoA; pH 8.0.

Substrate in data set [9]: NCCc1c[nH]c2ccc(OCc3ccccc3)cc12
Put plainly: steady-state kinetics. It counts as biochemical, Drosophila melanogaster. To be noted: acetyl-CoA; pH 8.0.

Where two headings read alike, the source gives them in different places.

`OCCc1ccc(O)cc1` [tyrosol] gave a Ki in data set [1] of 52 ± 9 µM.
`CCCCCCCC/C=C\CCCCCCCC(=O)SCCNC(=O)CCNC(=O)[C@H](O)C(C)(C)COP(=O)(O)OP(=O)(O)OC[C@H]1O[C@@H](n2cnc3c(N)ncnc32)[C@H](O)[C@@H]1OP(=O)(O)O` [oleoyl-CoA] had a Ki in data set [2] of 0.18 ± 0.03 µM.

B1: Arylalkylamine N-acyltransferase like 2 (AANATL2) (Drosophila melanogaster) (protein)
chain: MSAITIRAMTIGDYEEVEAFLAVHFFKQEPLMLIPQEDPKQSEVSSAEAELHRSLIPQDLSLVAVDGERIVGVVLAGELVPEDLEREYQEAEQKEITCLLDKIHKFLAGIERQANIFKHYGVERALYLYMLGVDVSIRRQRVGTRLVEATIELGRQRGFPVVTSTCSNQNSKRLMTALNMECILTKDYADYKDEHGEIVLRASEPHTSASVVAIRL
In the case of B1, the Km in data set [3] is 10 ± 2 µM; in [4] it was 5 ± 1 µM; in data set [5] it was 9 ± 1 µM; in [6], 9.5 ± 0.4 µM; in [7] it was 10 ± 2 µM; in data set [8] it was 14 ± 3 µM. For the same molecule, the Km in data set [9] is 8 ± 1 µM. For the same molecule, the kcat is 4.5 ± 0.2 s⁻¹ in data set [3]; 1.6 s⁻¹ in data set [4]; 2.9 ± 0.1 s⁻¹ in [5]; 1 ± 0.02 s⁻¹ in data set [6]; 3.7 ± 0.1 s⁻¹ in data set [7]; 4.3 ± 0.3 s⁻¹ in data set [8]. In addition, in [9], the turnover number (kcat) is 2.8 ± 0.1 s⁻¹. In addition, the kcat/Km was found to be 440000 ± 70000 M⁻¹ s⁻¹ in [3]; 310000 M⁻¹ s⁻¹ in data set [4]; 320000 ± 40000 M⁻¹ s⁻¹ in data set [5]; 110000 ± 5000 M⁻¹ s⁻¹ in [6]; 370000 ± 60000 M⁻¹ s⁻¹ in data set [7]; 310000 ± 60000 M⁻¹ s⁻¹ in data set [8]. Moreover, the kcat/Km in [9] worked out at 330000 ± 40000 M⁻¹ s⁻¹.
